Tests used:
Assay type in all cases: biochemical
[1] = Hydroxylation of diclofenac catalysed by cytochrome P450 aluC09 and mutants (UPLC-PDA-MS); settings: for 4′,5-dihydroxy-diclofenac 1.38 mins / 4′-hydroxy-diclofenac (1) 1.62 mins / 5-hydroxy-diclofenac (2) 1.58 mins / Diclofenac (Substrate) 1.81 mins: % by UV peak area at 275 nm, 0.125 mg/ml substrate, 27° C., 16-20 hours; for Hydroxylated Ratio hydroxy 1:hydroxy 2: diclofenac, ratio of UV peak areas at 275nm
Procedure, shortened: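 Lyophilised CYP450aluC09 or mutants, with ferredoxin aluF03 and reductase SCF15A, incubated 16-20 hours at 27° C with 0.125 mg/ml diclofenac in 50 mM potassium phosphate pH 7.4, 5 mM MgCl2, and G6P/NADP/G6PDH regeneration. Acetonitrile-extracted; conversion by UPLC-PDA-MS against authentic hydroxylated standards.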

[2] = Hydroxylation of flufenamic acid catalysed by cytochrome P450 aluC09 and mutants; settings: for Flufenamic Acid (Substrate) 1.93 mins / Hydroxy-Flufenamic Acid (1) 1.69 mins / Hydroxy-Flufenamic Acid (2) 1.65 mins: % by UV peak area at 275 nm, 0.125 mg/ml substrate, 27° C., 16-20 hours; for Hydroxylated Ratio 1:2: flufenamic acid, ratio of UV peak areas at 275 nm
Procedure, shortened: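 Lyophilised CYP450aluC09 mutants with ferredoxin aluF03 and reductase SCF15A, in 50 mM potassium phosphate pH 7.4, 5 mM MgCl2, 0.125 mg/ml flufenamic acid, G6P/NADP/G6PDH NADPH regeneration. Shaken 16-20 h at 27° C; acetonitrile-quenched, conversion to two hydroxy products by UPLC-MS.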

[3] = Hydroxylation of aceclofenac catalysed by cytochrome P450 aluC09 and mutants; settings: for Aceclofenac (Substrate) (1.80 mins) / Dihydroxy-Aceclofenac (1.42 mins) / Hydroxy-Aceclofenac (1) (1.64 min) / Hydroxy-Aceclofenac (2) (1.60 min): % by UV peak area at 275 nm, 0.125 mg/ml substrate, 27° C., 16-20 hours; for Hydroxylated Ratio 2:1: aceclofenac, ratio of UV peak areas at 275 nm
Procedure, shortened: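 Conversion was assessed by UPLC-MS (UV and MS detection) after acetonitrile extraction of reactions run 16-20 h at 27° C, shaking. Reactions contained substrate at 0.125 mg/ml, P450 mutant plus ferredoxin and reductase partners, 1 mM NADP with glucose-6-phosphate regeneration, in phosphate buffer pH 7.4.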

[4] = Hydroxylation / de-N-ethylation of napropamide catalysed by cytochrome P450 aluC09 and mutants; settings: for Desethyl Napropamide (1.62 min) / Desethyl-hydroxy-Napropamide (1.41 min) / Hydroxy-Napropamide (1) (1.53 min) / Hydroxy-Napropamide (2), (1.52 min) / M-2Da (unidentified) (1.89 min) / Napropamide (substrate): % by UV peak area at 275 nm, 0.125 mg/ml substrate, 27° C., 16-20 hours; for Hydroxylated Ratio 2:1: napropamide, ratio of UV peak areas
Procedure, shortened: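 Conversion of napropamide (0.125 mg/ml) to hydroxylated and de-ethylated metabolites was measured by UPLC-MS after acetonitrile extraction. Reactions ran 16-20 h at 27° C in pH 7.4 potassium phosphate (50 mM) with 5 mM MgCl2, 1 mM NADP, 5 mM G6P and 2 UN/ml G6PDH. Enzymes were lyophilised P450 aluC09 variants, ferredoxin aluF03 and ferredoxin reductase SCF15A.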

[5] = O-demethylation of indomethacin catalysed by cytochrome P450 aluC09 and mutants; settings: % by UV peak area at 275 nm; 0.125 mg/ml substrate, 27° C., 16-20 hours
Procedure, shortened: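 Lyophilised CYP450aluC09 mutants with ferredoxin aluF03 and reductase SCF15A, 0.125 mg/ml substrate, 50 mM potassium phosphate pH 7.4, 5 mM MgCl2, G6P/G6PDH/NADP recycling. Shaken 16-20 h at 27° C. Acetonitrile-quenched, conversion measured by UPLC-MS.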

[6] = Metabolism of ritonavir by P450 aluC09 and mutants; settings: percent of substrate being converted; 0.125 mg/ml, 27° C., 16-20 hours; [CYP] per enzyme as in Table 8
Procedure, shortened: (§1)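 Mutant P450s were combined with redox partners and substrate (0.125 mg/ml) in pH 7.4 phosphate buffer with 5 mM MgCl2 and cofactor recycling (1 mM NADP, 5 mM G6P, 2 UN/ml G6PDH). Mixtures were shaken at 27° C for 16-20 hours, extracted with equal-volume acetonitrile and centrifuged. Products were quantified as conversion by UPLC-MS.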

[7] = Metabolism of celecoxib by P450 aluC09 and mutants; settings: percent of substrate being converted; 0.125 mg/ml, 27° C., 16-20 hours; [CYP] per enzyme as in Table 8
Procedure, shortened: as §1

[8] = Metabolism of epothilone B by P450 aluC09 and mutants; settings: percent of substrate being converted; 0.125 mg/ml, 27° C., 16-20 hours; [CYP] per enzyme as in Table 8
Procedure, shortened: as §1

[9] = Metabolism of buparvaquone by P450 aluC09 and mutants; settings: percent of substrate being converted; 0.125 mg/ml, 27° C., 16-20 hours; [CYP] per enzyme as in Table 8
Procedure, shortened: as §1

[10] = Metabolism of BIRB796 by P450 aluC09 and mutants; settings: percent of substrate being converted; 0.125 mg/ml, 27° C., 16-20 hours; [CYP] per enzyme as in Table 8
Procedure, shortened: as §1

[11] = Metabolism of bosentan by P450 aluC09 and mutants; settings: percent of substrate being converted; 0.125 mg/ml, 27° C., 16-20 hours; [CYP] per enzyme as in Table 8
Procedure, shortened: as §1

[12] = Metabolism of valsartan by P450 aluC09 and mutants; settings: percent of substrate being converted; 0.125 mg/ml, 27° C., 16-20 hours; [CYP] per enzyme as in Table 8
Procedure, shortened: as §1

[13] = Metabolism of ruxolitinib by P450 aluC09 and mutants; settings: percent of substrate being converted; 0.125 mg/ml, 27° C., 16-20 hours; [CYP] per enzyme as in Table 8
Procedure, shortened: as §1

[14] = Metabolism of 4-pyrrolidylacetophenone by P450 aluC09 and mutants; settings: percent of substrate being converted; 0.125 mg/ml, 27° C., 16-20 hours; [CYP] per enzyme as in Table 8
Procedure, shortened: as §1

[15] = Metabolism of tivantinib by P450 aluC09 and mutants; settings: percent of substrate being converted; 0.125 mg/ml, 27° C., 16-20 hours; [CYP] per enzyme as in Table 8
Procedure, shortened: as §1

[16] = Metabolism of tofacitinib by P450 aluC09 and mutants; settings: percent of substrate being converted; 0.125 mg/ml, 27° C., 16-20 hours; [CYP] per enzyme as in Table 8
Procedure, shortened: as §1

B1: aluC09M37: cytochrome P450 aluC09 mutant T291W; amino acid sequence SEQ ID NO: 60 (protein, listed as Amycolatopsis lurida)
chain: MTDVEETTATLPLARKCPFSPPPEYERLRRESPVSRVGLPSGQTAWALTRLEDIREMLSSPHFSSDRQSPSFPLMVARQIRREDKPFRPSLIAMDPPEHSRARRDVVGEFTVKRMKALQPRIQQIVDEHLDALLAGPKPADLVQALSLPVPSLVICELLGVPYSDHEFFQSCSSRMLSREVTAEERMTAFEQLENYLDELVTKKEANATEDDLLGRQILKQRETGEADHGELVGLAFLLLIAGHETTANMISLGTVTLLENPDQLAKIKADPGKTLAAIEELLRVFTIAEWATSRFATADVEIGGTLIRAGEGVVGLSNAGNHDPDGFENPDTFDIERGARHHVAFGFGVHQCLGQNLARLELQIVFDTLFRRVPGLRIAVPVDELPFKHDSTIYGLHALPVTW
4′,5-dihydroxy-diclofenac 1.38 mins [1]: 1.9% | 4′-hydroxy-diclofenac (1) 1.62 mins [1]: 31.4% | 5-hydroxy-diclofenac (2) 1.58 mins [1]: 15.9% | Diclofenac (Substrate) 1.81 mins [1]: 51.8% | Hydroxylated Ratio hydroxy 1:hydroxy 2 [1]: 2.0 | Flufenamic Acid (Substrate) 1.93 mins [2]: 91.3% | Hydroxy-Flufenamic Acid (1) 1.69 mins [2]: 6.4% | Hydroxy-Flufenamic Acid (2) 1.65 mins [2]: 2.2% | Hydroxylated Ratio 1:2 [2]: 2.9 | Aceclofenac (Substrate) (1.80 mins) [3]: 4.2% | Dihydroxy-Aceclofenac (1.42 mins) [3]: 56.0% | Hydroxy-Aceclofenac (1) (1.64 min) [3]: 4.5% | Hydroxy-Aceclofenac (2) (1.60 min) [3]: 35.3% | Hydroxylated Ratio 2:1 [3]: 7.8 | Desethyl Napropamide (1.62 min) [4]: 40.1% | Desethyl-hydroxy-Napropamide (1.41 min) [4]: 3.3% | Hydroxy-Napropamide (1) (1.53 min) [4]: 1.6% | Hydroxy-Napropamide (2), (1.52 min) [4]: 3.3% | M-2Da (unidentified) (1.89 min) [4]: 6.0% | Napropamide (substrate) [4]: 47.3% | Hydroxylated Ratio 2:1 [4]: 2.1 | Indomethacin (1.74 mins) [5]: 89.0% | O-demethyl-Indomethacin (1.52 mins) [5]: 11.0% | % conversions (avg) Ritonavir [6]: 64.1% | % conversions (avg) Celecoxib [7]: 7.2% | % conversions (avg) Epothilone B [8]: 50.2% | % conversions (avg) Buparvaquone [9]: 10.5% | % conversions (avg) BIRB796 [10]: 10% | % conversions (avg) Bosentan [11]: 98.6% | % conversions (avg) Valsartan [12]: 41% | % conversions (avg) Ruxolitinib [13]: 34.2% | % conversions (avg) 4-pyrrolidylacetophenone [14]: 7.3% | % conversions (avg) Tivantinib [15]: 31% | % conversions (avg) Tofacitinib [16]: 0.9%

B2: aluC09M40: cytochrome P450 aluC09 mutant T291R; amino acid sequence SEQ ID NO: 72 (protein, listed as Amycolatopsis lurida)
chain: MTDVEETTATLPLARKCPFSPPPEYERLRRESPVSRVGLPSGQTAWALTRLEDIREMLSSPHFSSDRQSPSFPLMVARQIRREDKPFRPSLIAMDPPEHSRARRDVVGEFTVKRMKALQPRIQQIVDEHLDALLAGPKPADLVQALSLPVPSLVICELLGVPYSDHEFFQSCSSRMLSREVTAEERMTAFEQLENYLDELVTKKEANATEDDLLGRQILKQRETGEADHGELVGLAFLLLIAGHETTANMISLGTVTLLENPDQLAKIKADPGKTLAAIEELLRVFTIAERATSRFATADVEIGGTLIRAGEGVVGLSNAGNHDPDGFENPDTFDIERGARHHVAFGFGVHQCLGQNLARLELQIVFDTLFRRVPGLRIAVPVDELPFKHDSTIYGLHALPVTW
4′,5-dihydroxy-diclofenac 1.38 mins [1]: 2.2% | 4′-hydroxy-diclofenac (1) 1.62 mins [1]: 35.7% | 5-hydroxy-diclofenac (2) 1.58 mins [1]: 14.3% | Diclofenac (Substrate) 1.81 mins [1]: 48.8% | Hydroxylated Ratio hydroxy 1:hydroxy 2 [1]: 2.5 | Flufenamic Acid (Substrate) 1.93 mins [2]: 94.8% | Hydroxy-Flufenamic Acid (1) 1.69 mins [2]: 4.4% | Hydroxy-Flufenamic Acid (2) 1.65 mins [2]: 0.9% | Hydroxylated Ratio 1:2 [2]: 4.9 | Aceclofenac (Substrate) (1.80 mins) [3]: 46.3% | Dihydroxy-Aceclofenac (1.42 mins) [3]: 12.7% | Hydroxy-Aceclofenac (1) (1.64 min) [3]: 19.7% | Hydroxy-Aceclofenac (2) (1.60 min) [3]: 21.4% | Hydroxylated Ratio 2:1 [3]: 1.1 | Desethyl Napropamide (1.62 min) [4]: 12.9% | Desethyl-hydroxy-Napropamide (1.41 min) [4]: 0.4% | Hydroxy-Napropamide (1) (1.53 min) [4]: 2.3% | Hydroxy-Napropamide (2), (1.52 min) [4]: 1.8% | M-2Da (unidentified) (1.89 min) [4]: 2.4% | Napropamide (substrate) [4]: 80.6% | Hydroxylated Ratio 2:1 [4]: 0.8 | Indomethacin (1.74 mins) [5]: 88.8% | O-demethyl-Indomethacin (1.52 mins) [5]: 11.2% | % conversions (avg) Ritonavir [6]: 53.4% | % conversions (avg) Celecoxib [7]: 0% | % conversions (avg) Epothilone B [8]: 2.4% | % conversions (avg) Buparvaquone [9]: 0% | % conversions (avg) BIRB796 [10]: 0% | % conversions (avg) Bosentan [11]: 76.5% | % conversions (avg) Valsartan [12]: 7.3% | % conversions (avg) Ruxolitinib [13]: 5.2% | % conversions (avg) 4-pyrrolidylacetophenone [14]: 1.7% | % conversions (avg) Tivantinib [15]: 5.3% | % conversions (avg) Tofacitinib [16]: 0.4%
